This is an account of results in PMC11403621, “Selective Aurora A-TPX2 Interaction Inhibitors Have In Vivo Efficacy as Targeted Antimitotic Agents” (Journal of Medicinal Chemistry, 2024).

The target in assay [1] is T1, Aurora A kinase domain (residues 126–390) of human Aurora A with hexa-His tag (human, UniProt O14965 126-390).
T1 construct: Construct for biophysical assays; Co-expressed with λ phosphatase, so probably not phosphorylated (surmise); The crystallography constructs differ (Thr287Ala or Cys290Ala); also called Aurora A protein; pBAT4-AurAS.003; source: E. coli BL21(DE3) with pUBS520, double cistronic construct with λ phosphatase, purified (HisTrap, Superdex 75)
T1 sequence (looked up): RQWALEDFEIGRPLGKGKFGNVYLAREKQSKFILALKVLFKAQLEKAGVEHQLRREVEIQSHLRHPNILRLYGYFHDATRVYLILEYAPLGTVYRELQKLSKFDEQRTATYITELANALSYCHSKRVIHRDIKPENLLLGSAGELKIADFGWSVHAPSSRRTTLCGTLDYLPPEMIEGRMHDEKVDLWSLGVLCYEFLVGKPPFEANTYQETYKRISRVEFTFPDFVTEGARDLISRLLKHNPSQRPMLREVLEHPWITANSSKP
Nature of the assay: fluorescence polarisation; direct titration of up to 200 nM Aurora A to 11 nM labeled TPX2 peptide; 100 mM HEPES pH 7.4, 100 mM magnesium acetate, 50 mM NaCl, 0.02% P20, 1 mM DTT, 1 mM ATP, 10% (v/v) DMSO. The note with it: both partners purified.

For assay [2], the target named is T1, Aurora A kinase domain (residues …). Nature of the assay: ligand-observed NMR (CPMG) competition; small-molecule fragments bound to Aurora A, displaced by added TPX2 peptide 7-22 but not by a tight-binding ATP-site ligand. The settings on record: both partners purified.

No end group written: not given here.

B1: TPX2 peptide (residues 7–43) with a C-terminal GGGCSS tail, labeled with Alexa Fluor 488 (peptide)
peptide: GPGSYSYDAPSDFINFSSLDDEGDTQNIDSWFEEKANLENLKGGGC(Alexa Fluor 488 C5 maleimide)SS
notes: residues left at the N-terminus before the TPX2 part in the printed peptide (after HRV 3C cleavage); TPX2, UniProt Q9ULW0, residues 7-43; C-terminal tail as printed: LK followed by the stated GGGCSS tail; the cysteine carries the dye; Whole printed peptide: [residues removed]; also called labeled TPX2 peptide; not shown: His-tag, N-terminal, cleaved; GB1, N-terminal, cleaved
In assay [1], B1 came in with a Kd of 1.2 nM.

B2: TPX2 peptide fragment (amino acids 7–22) (peptide, UniProt Q9ULW0 7-22, looked up)
peptide: SYSYDAPSDFINFSSL
notes: TPX2, UniProt Q9ULW0 (printed for the longer peptide), amino acids 7-22; detailed methods are in the Supporting Information PDF
As for B2, in assay [2], the binding result is “binds”.

A word on the Kd: it is the equilibrium constant for the complex coming apart.
